Measured values taken from US9739779B2, “Methods of screening for Janus kinase 3 interacting compounds” (priority 2013, dated 2017).

Experiments:
[1] = target: T1, P-Villin (Homo sapiens, UniProt P09327); test: Multiplate ELISA binding of GST-Jak3 and truncated Jak3 fusion proteins to P-Villin
T1 construct: made in house; host or cells: E. coli TKX1 (pGEX2T vector)
T1 sequence (P09327 1-827): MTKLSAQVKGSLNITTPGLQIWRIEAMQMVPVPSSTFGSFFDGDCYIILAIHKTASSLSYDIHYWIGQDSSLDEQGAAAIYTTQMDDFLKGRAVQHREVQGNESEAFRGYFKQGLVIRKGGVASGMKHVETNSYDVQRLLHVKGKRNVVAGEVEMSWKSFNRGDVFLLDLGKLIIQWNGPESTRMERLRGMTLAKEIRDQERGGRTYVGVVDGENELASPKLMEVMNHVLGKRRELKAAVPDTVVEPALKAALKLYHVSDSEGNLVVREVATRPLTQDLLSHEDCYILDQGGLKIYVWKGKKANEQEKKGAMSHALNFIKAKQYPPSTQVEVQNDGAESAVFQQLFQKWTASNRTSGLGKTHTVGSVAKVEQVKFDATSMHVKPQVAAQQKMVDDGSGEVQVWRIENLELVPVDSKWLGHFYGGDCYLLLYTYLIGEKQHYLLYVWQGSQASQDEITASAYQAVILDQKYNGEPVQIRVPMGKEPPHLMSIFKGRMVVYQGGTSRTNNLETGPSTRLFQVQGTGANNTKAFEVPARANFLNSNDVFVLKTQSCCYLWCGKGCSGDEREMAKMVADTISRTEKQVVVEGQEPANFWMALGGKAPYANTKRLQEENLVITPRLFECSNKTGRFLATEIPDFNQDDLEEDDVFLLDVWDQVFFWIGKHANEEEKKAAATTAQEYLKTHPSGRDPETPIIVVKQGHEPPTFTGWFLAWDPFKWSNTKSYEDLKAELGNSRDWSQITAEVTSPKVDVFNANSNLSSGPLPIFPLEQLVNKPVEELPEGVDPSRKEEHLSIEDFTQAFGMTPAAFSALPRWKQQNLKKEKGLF
Method: Absorbance values for wells containing P-Villin contacted with GST alone were used as control, and data presented on the ordinate axis represent absorbance values after subtraction of control values.
(§1) To determine the ability of Jak3 to interact with natural compounds including biomolecules, binding studies were performed in a multiplate using the cytoskeletal protein, Villin, known in the art to be a substrate for P-Jak3. Multiplates pre-coated with P-Villin were contacted with increasing concentrations of GST-P-Jak3 fusion protein (test samples) or GST alone (control sample). Binding levels were measured using GST antibody as the primary binding partner, horse radish peroxidase conjugated antibody as the secondary binding partner and 3,3′,5,5′-tetramethylbenzidine as the colorimetric substrate. Raw absorbance data for the control samples were subtracted from the absorbance for the test samples to obtain the corrected absorbance values.
To determine whether the kinase domains of Jak3 are critical for Villin binding, recombinant GST-truncated-Jak3 fusion proteins shown in FIGS. 2C-2E were expressed in BL21 (for non-phosphorylated proteins) or TKX1 (for phosphorylated proteins) cells, and purified. Multiplates pre-coated with P-Villin were contacted with these GST-tagged recombinant truncated-Jak3 or with GST-tagged recombinant WT-Jak3, and binding measured as described supra.

[2] = target: T2, GST-P-Jak3 fusion protein (Mus musculus, UniProt Q62137); test: Multiplate ELISA binding of P-Villin to GST-P-Jak3
T2 construct: made in house; host or cells: E. coli TKX1 (pGEX-4T vector)
Method: GST is the reporter protein and the primary binding partner is a GST antibody.
as §1

T2 sequence (Q62137 with tags, fused parts or gaps): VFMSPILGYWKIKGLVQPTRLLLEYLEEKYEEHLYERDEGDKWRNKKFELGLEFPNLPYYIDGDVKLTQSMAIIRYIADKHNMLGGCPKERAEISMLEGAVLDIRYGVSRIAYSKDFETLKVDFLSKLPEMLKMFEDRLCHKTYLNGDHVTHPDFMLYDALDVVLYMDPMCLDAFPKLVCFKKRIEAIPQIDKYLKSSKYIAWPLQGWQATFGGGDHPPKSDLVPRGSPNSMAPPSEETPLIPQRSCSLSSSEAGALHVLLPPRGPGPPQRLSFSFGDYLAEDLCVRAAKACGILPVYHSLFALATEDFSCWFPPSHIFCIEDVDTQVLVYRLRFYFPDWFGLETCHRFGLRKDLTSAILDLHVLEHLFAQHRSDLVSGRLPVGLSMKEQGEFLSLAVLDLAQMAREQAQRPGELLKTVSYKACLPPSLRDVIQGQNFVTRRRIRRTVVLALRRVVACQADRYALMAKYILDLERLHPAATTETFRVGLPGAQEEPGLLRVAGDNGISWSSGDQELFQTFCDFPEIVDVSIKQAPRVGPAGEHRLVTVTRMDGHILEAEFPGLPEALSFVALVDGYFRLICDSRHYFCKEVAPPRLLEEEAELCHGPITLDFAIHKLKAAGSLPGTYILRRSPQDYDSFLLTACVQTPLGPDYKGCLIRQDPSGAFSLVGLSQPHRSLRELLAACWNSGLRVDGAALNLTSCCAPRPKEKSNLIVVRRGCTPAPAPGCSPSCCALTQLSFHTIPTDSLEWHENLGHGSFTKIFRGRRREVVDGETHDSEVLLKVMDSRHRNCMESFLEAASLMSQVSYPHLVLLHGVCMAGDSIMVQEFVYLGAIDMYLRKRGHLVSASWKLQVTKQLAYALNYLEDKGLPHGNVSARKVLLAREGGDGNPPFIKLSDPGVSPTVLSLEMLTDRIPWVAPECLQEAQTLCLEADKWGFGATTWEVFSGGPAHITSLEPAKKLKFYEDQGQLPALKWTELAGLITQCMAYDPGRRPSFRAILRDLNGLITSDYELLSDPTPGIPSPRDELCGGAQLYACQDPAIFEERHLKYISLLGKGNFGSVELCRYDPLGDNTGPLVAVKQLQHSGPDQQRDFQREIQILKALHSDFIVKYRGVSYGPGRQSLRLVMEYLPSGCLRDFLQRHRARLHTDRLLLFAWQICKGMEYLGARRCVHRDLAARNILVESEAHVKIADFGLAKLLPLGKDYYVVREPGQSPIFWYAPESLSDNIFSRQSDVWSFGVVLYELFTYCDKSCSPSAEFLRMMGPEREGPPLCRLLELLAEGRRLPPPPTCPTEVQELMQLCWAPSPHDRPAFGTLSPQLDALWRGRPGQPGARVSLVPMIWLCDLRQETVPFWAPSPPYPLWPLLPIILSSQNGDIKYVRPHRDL

For “P-WT-Jak3: phosphorylated GST-WT-Jak3 fusion protein (SEQ ID NO: 11) expressed in TKX1”, the Kd ([1]; plates pre-coated with P-Villin, read-out: dissociation constant (Kd)) was 0.023 µM.

In the case of “WT-Jak3: non-phosphorylated GST-WT-Jak3 fusion protein (SEQ ID NO. 7) expressed in BL21”, the “level of binding to P-Villin” value ([1]; FIG. 8A, GST-alone control subtracted) is reported as “relatively lower level of binding”.

B1: P-Villin: recombinant phosphorylated cytoskeletal protein Villin expressed in E. coli TKX1 (protein)
chain: T1 sequence (P09327 1-827)
B1 was tested, and the Kd ([2]; plates pre-coated with P-Villin, P-Jak3 0-400 nM, GST control subtracted, read-out: dissociation constant (Kd)) was 0.023 µM and the “Hill coefficient (h)” value ([2]; rearranged Hill equation plot) was 3.7.
